The source of these data is US20210340217A1, “NOVEL PEPTIDES AND COMBINATION OF PEPTIDES FOR USE IN IMMUNOTHERAPY AGAINST OVARIAN CANCER AND OTHER CANCERS” (Immatics Biotechnologies GmbH, priority 2017, published 2021).

One assay addresses HLA-A*02:01 (Homo sapiens, UniProt P04439, D140Y/D185E/D98H/E176V/E277Q/G131W/G231S/I119V/I121R/I166T/I218V/L300P/L318F/N151K/N90K/P208A/P217A/Q86G/Q94H/R138H/R169H/T345S). Nature of the assay: MHC binding assay (UV-ligand exchange, beta2m ELISA). The following applies: peptide exchange yield. The gist of the method: (§1)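 Peptide–MHC complexes formed by UV-induced exchange of a UV-cleavable peptide for the test peptide. Exchange yield measured by streptavidin-capture ELISA detecting β2m (HRP anti-β2m, TMB, A450) on 100-fold diluted samples. Quantified against refolded HLA-A*02:01/MLA-001 standards (15-500 ng/ml).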
Background: An ELISA detects its analyte on a solid surface through an enzyme-linked reagent.

For another assay, the target named is HLA-A*03:01 (Homo sapiens, UniProt P04439). The description is as above. The following applies: peptide exchange yield. In outline: as §1

With “1 (MIPTFTALL; listed as Homo sapiens) [compound 1]”, the Peptide exchange entry with HLA-A*02:01 is reported as “+++ (>50 = +++)”.
Still for that read-out and setting: in the case of “71 (YLEDTDRNL; listed as Homo sapiens) [compound 71]” it was “++++ (>75% = ++++)”; in that of “4 (ALFKAWAL; listed as Homo sapiens) [compound 4]”, “++++ (>75% = ++++)”.
On to “67 (SLLLPSIFL; listed as Homo sapiens) [compound 67]”, for which, in the assay with HLA-A*02:01, the Peptide exchange entry is “++++ (>75% = ++++)”.
In the case of “5 (RLLDFINVL; listed as Homo sapiens) [compound 5]”, the Peptide exchange result in the assay with HLA-A*02:01 is “++++ (>75% = ++++)”.
On the same count and under the same terms, the entry for “62 (KVLGVNVML; listed as Homo sapiens) [compound 62]” is “++++ (>75% = ++++)”.
On the same count and under the same terms, the entry for “9 (VLLAGFKPPL; listed as Homo sapiens) [compound 9]” is “+ (>10% = +)”.
Still for that read-out and setting: in the case of “228 (RLWDWVPLA; listed as Homo sapiens) [compound 228]” it was “++++ (>75% = ++++)”; in that of “223 (FAHHGRSL; listed as Homo sapiens) [compound 223]”, “+ (>10% = +)”; in that of “217 (VSSSLTLKV; listed as Homo sapiens) [compound 217]”, “+ (>10% = +)”.
On to “64 (FLDPDRHFL; listed as Homo sapiens) [compound 64]”, for which the Peptide exchange entry with HLA-A*02:01 is “++++ (>75% = ++++)”.
Same read-out and setting: the entry for “3 (ALIYNLVGI; listed as Homo sapiens) [compound 3]” is “++++ (>75% = ++++)”.
Still for that read-out and setting: in the case of “229 (ISVPAKTSL; listed as Homo sapiens) [compound 229]” it was “+ (>10% = +)”.
With “70 (VLQGLLRSL; listed as Homo sapiens) [compound 70]”, in the assay with HLA-A*02:01, the Peptide exchange entry is “++++ (>75% = ++++)”.
For “21 (AVRKPIVLK; listed as Homo sapiens) [compound 21]”, the Peptide exchange result in the assay with HLA-A*03:01 is “+++ (>50 = +++)”.
On the same count and under the same terms, in the case of “285 (GTVNPTVGK; listed as Homo sapiens) [compound 285]” it was “++ (>20% = ++)”; in that of “23 (GMMKGGIRK; listed as Homo sapiens) [compound 23]”, “+++ (>50 = +++)”.
As for “105 (RLFSWLVNR; listed as Homo sapiens) [compound 105]”, in the assay with HLA-A*03:01, the Peptide exchange result was “+++ (>50 = +++)”.
Still for that read-out and setting: in the case of “85 (VLLGSLFSRK; listed as Homo sapiens) [compound 85]” it was “++ (>20% = ++)”.
As for “222 (ALMRLIGCPL; listed as Homo sapiens) [compound 222]”, in the assay with HLA-A*02:01, the Peptide exchange result is reported as “++++ (>75% = ++++)”.
Take “22 (SLKERNPLK; listed as Homo sapiens) [compound 22]”: the Peptide exchange result in the assay with HLA-A*03:01 is “++ (>20% = ++)”.
On the same count and under the same terms, the entry for “271 (RMFADDLHNLNK; listed as Homo sapiens) [compound 271]” is “+++ (>50 = +++)”.
Turning to “7 (ALQAFEFRV; listed as Homo sapiens) [compound 7]”, the Peptide exchange result with HLA-A*02:01 is “++++ (>75% = ++++)”.
With “72 (YLTDLQVSL; listed as Homo sapiens) [compound 72]”, in the assay with HLA-A*02:01, the Peptide exchange entry is recorded as “++++ (>75% = ++++)”.
As to “24 (SMYYPLQLK; listed as Homo sapiens) [compound 24]”, in the assay with HLA-A*03:01, the Peptide exchange entry is reported as “+++ (>50 = +++)”.
On the same count and under the same terms, in the case of “256 (RTEEVLLTFK; listed as Homo sapiens) [compound 256]” it was “++ (>20% = ++)”; in that of “26 (RISEYLLEK; listed as Homo sapiens) [compound 26]”, “++ (>20% = ++)”; in that of “102 (SVLTSSLVK; listed as Homo sapiens) [compound 102]”, “++ (>20% = ++)”.
As for “89 (RVAELLLLH; listed as Homo sapiens) [compound 89]”, the Peptide exchange result in the assay with HLA-A*03:01 is “++ (>20% = ++)”.
Consider “220 (RMTTQLLLL; listed as Homo sapiens) [compound 220]”, for which the Peptide exchange result with HLA-A*02:01 is given as “+++ (>50 = +++)”.
Same read-out and setting: the entry for “227 (YTFRYPLSL; listed as Homo sapiens) [compound 227]” is “+++ (>50 = +++)”.
On to “27 (VLYGPAGLGK; listed as Homo sapiens) [compound 27]”, for which the Peptide exchange entry with HLA-A*03:01 is reported as “+++ (>50 = +++)”.
As to “86 (VVLLGSLFSRK; listed as Homo sapiens) [compound 86]”, the Peptide exchange result with HLA-A*03:01 is recorded as “++ (>20% = ++)”.
For the substance “277 (TTALKTTSR; listed as Homo sapiens) [compound 277]”, the Peptide exchange result in the assay with HLA-A*03:01 was “+ (>10% = +)”.
Still for that read-out and setting: the entry for “258 (GAYAHTVNR; listed as Homo sapiens) [compound 258]” is “+++ (>50 = +++)”.
On the same count and under the same terms, in the case of “272 (RQPERTILRPR; listed as Homo sapiens) [compound 272]” it was “++ (>20% = ++)”.
As to “219 (PLPRPGAVL; listed as Homo sapiens) [compound 219]”, in the assay with HLA-A*02:01, the Peptide exchange result is “+ (>10% = +)”.
On the same count and under the same terms, in the case of “60 (GLLSLTSTLYL; listed as Homo sapiens) [compound 60]” it was “++++ (>75% = ++++)”; in that of “244 (DTDSSVHVQV; listed as Homo sapiens) [compound 244]”, “+ (>10% = +)”; in that of “216 (IMFDDAIERA; listed as Homo sapiens) [compound 216]”, “++++ (>75% = ++++)”.
Regarding “83 (GTYAHTVNR; listed as Homo sapiens) [compound 83]”, in the assay with HLA-A*03:01, the Peptide exchange entry is reported as “+++ (>50 = +++)”.
Still for that read-out and setting: in the case of “109 (KTFTIKRFLAK; listed as Homo sapiens) [compound 109]” it was “++ (>20% = ++)”.
Still for that read-out and setting: in the case of “273 (RVNAIPFTY; listed as Homo sapiens) [compound 273]” it was “+++ (>50 = +++)”; in that of “88 (VVHAVFALK; listed as Homo sapiens) [compound 88]”, “+++ (>50 = +++)”; in that of “281 (RAKELEATF; listed as Homo sapiens) [compound 281]”, “+ (>10% = +)”.
Same read-out and setting: in the case of “91 (RSLRYYYEK; listed as Homo sapiens) [compound 91]” it was “++ (>20% = ++)”.
For the substance “73 (FLIEELLFA; listed as Homo sapiens) [compound 73]”, the Peptide exchange entry with HLA-A*02:01 is on record as “++++ (>75% = ++++)”.
On to “279 (SVSSETTKIKR; listed as Homo sapiens) [compound 279]”, for which the Peptide exchange entry in the assay with HLA-A*03:01 is given as “++ (>20% = ++)”.
The same measure, in the same setting: the entry for “275 (STTFPTLTK; listed as Homo sapiens) [compound 275]” is “++ (>20% = ++)”; for “262 (RSRLNPLVQR; listed as Homo sapiens) [compound 262]” it is “++ (>20% = ++)”.
On to “260 (GTNTVILEY; listed as Homo sapiens) [compound 260]”, for which the Peptide exchange entry in the assay with HLA-A*03:01 was “+++ (>50 = +++)”.
Take “61 (YMVHIQVTL; listed as Homo sapiens) [compound 61]”: in the assay with HLA-A*02:01, the Peptide exchange result is “++++ (>75% = ++++)”.
“284 (KSLIKSWKK; listed as Homo sapiens) [compound 284]”: the Peptide exchange result with HLA-A*03:01 is recorded as “++ (>20% = ++)”.
On the same count and under the same terms, in the case of “25 (GTSPPSVEK; listed as Homo sapiens) [compound 25]” it was “++ (>20% = ++)”.
On to “93 (KILEEHTNK; listed as Homo sapiens) [compound 93]”, for which the Peptide exchange result in the assay with HLA-A*03:01 was “++ (>20% = ++)”.
For the substance “107 (RLQEWKALK; listed as Homo sapiens) [compound 107]”, the Peptide exchange result in the assay with HLA-A*03:01 is “+++ (>50 = +++)”.
Same read-out and setting: in the case of “104 (VLADSVTTK; listed as Homo sapiens) [compound 104]” it was “++ (>20% = ++)”.
The same measure, in the same setting: in the case of “95 (QSMYYPLQLK; listed as Homo sapiens) [compound 95]” it was “++ (>20% = ++)”; in that of “270 (AVFNPRFYRTY; listed as Homo sapiens) [compound 270]”, “++ (>20% = ++)”; in that of “263 (SSSSATISK; listed as Homo sapiens) [compound 263]”, “++ (>20% = ++)”.
On the same count and under the same terms, the entry for “87 (AVAPPTPASK; listed as Homo sapiens) [compound 87]” is “++ (>20% = ++)”; for “276 (VSKTTGMEF; listed as Homo sapiens) [compound 276]” it is “+ (>10% = +)”.
On to “278 (NLSSITHER; listed as Homo sapiens) [compound 278]”, for which the Peptide exchange result in the assay with HLA-A*03:01 was “++ (>20% = ++)”.
Same read-out and setting: in the case of “110 (SAAPPSYFR; listed as Homo sapiens) [compound 110]” it was “++ (>20% = ++)”; in that of “286 (TVAPPQGVVK; listed as Homo sapiens) [compound 286]”, “++ (>20% = ++)”; in that of “259 (KTLELRVAY; listed as Homo sapiens) [compound 259]”, “++ (>20% = ++)”.
Same read-out and setting: in the case of “274 (KTFPASTVF; listed as Homo sapiens) [compound 274]” it was “+ (>10% = +)”; in that of “84 (KLQPAQTAAK; listed as Homo sapiens) [compound 84]”, “++ (>20% = ++)”; in that of “101 (RVFTSSIKTK; listed as Homo sapiens) [compound 101]”, “++ (>20% = ++)”.
Still for that read-out and setting: in the case of “266 (ISYSGQFLVK; listed as Homo sapiens) [compound 266]” it was “+++ (>50 = +++)”; in that of “20 (RMASPVNVK; listed as Homo sapiens) [compound 20]”, “++++ (>75% = ++++)”.
Take “261 (HTFGLFYQR; listed as Homo sapiens) [compound 261]”: the Peptide exchange entry with HLA-A*03:01 is on record as “++ (>20% = ++)”.
